Nine substances from paper doi:10.1101/2025.05.15.654345 can be followed below.

The experiment has as its target human IFITM3 (untagged; interferon-induced transmembrane protein 3) (UniProt Q01628). Description: co-immunoprecipitation (anti-HA IP, anti-IFITM3 immunoblot, band ratio). Conditions: HEK293T co-transfected with pCMV-IFITM3 (0.50 μg) and pBJ-97ZA Nef-HA WT or mutant (0.25 μg); parent: 100. In general terms: A western blot detects proteins with antibodies after separation by electrophoresis.
UniProt Q01628, sequence (Q01628 whole entry): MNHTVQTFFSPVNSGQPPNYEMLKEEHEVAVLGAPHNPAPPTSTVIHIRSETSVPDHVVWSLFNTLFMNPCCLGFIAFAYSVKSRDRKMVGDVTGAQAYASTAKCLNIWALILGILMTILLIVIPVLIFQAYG

For the substance “97ZA013 Nef-HA (HIV-1 clade C primary isolate), wild type M20A”, the percent of parent (% (IFITM3/HA ratio, WT = 100)) was 124.

Regarding “97ZA013 Nef-HA (HIV-1 clade C primary isolate), wild type L164A; L165A”, the percent of parent (% (IFITM3/HA ratio, WT = 100)) was 87. The value for “97ZA013 Nef-HA (HIV-1 clade C primary isolate), wild type M169V; Q171L” was 244.

For the substance “97ZA013 Nef-HA (HIV-1 clade C primary isolate), wild type N163T; C164S”, the percent of parent (% (IFITM3/HA ratio, WT = 100)) was 217.

Consider “97ZA013 Nef-HA (HIV-1 clade C primary isolate), wild type G2A”, for which the percent of parent (% (IFITM3/HA ratio, WT = 100)) turned out to be 1. Turning to “97ZA013 Nef-HA (HIV-1 clade C primary isolate), wild type S152D; E153K”, the percent of parent (% (IFITM3/HA ratio, WT = 100)) was determined as 42. For “97ZA013 Nef-HA (HIV-1 clade C primary isolate), wild type E153K”, the percent of parent (% (IFITM3/HA ratio, WT = 100)) turned out to be 73. Turning to “97ZA013 Nef-HA (HIV-1 clade C primary isolate), wild type R192F; R193H”, the percent of parent (% (IFITM3/HA ratio, WT = 100)) is 188.

As to “97ZA013 Nef-HA (HIV-1 clade C primary isolate), wild type R17A; R19A; R21A; R22A”, the percent of parent (% (IFITM3/HA ratio, WT = 100)) is 16.
